Assay results: US20050164323

What was measured:
[1] = target: T1, TRSKGTLRYMS (SEQ ID NO: 38)
T1 chain: TRSKGTLRYMS

[2] = target: T2, KPFKLSGLSFK (SEQ ID NO: 43)
T2 chain: KPFKLSGLSFK

[3] = target: T3, QAWSKTTPRRI (SEQ ID NO: 31)
T3 chain: QAWSKTTPRRI

[4] = target: T4, Peptide 3 (LKRSLSEM), substrate, Serum Response Factor
T4 chain: LKRSLSEM

… (SEQ ID NO: 54) = target: T5, … (SEQ ID NO: 54)
T5 chain: SYTRFSLARQV

[5] = target: T6, KAFRDTFRLLL (SEQ ID NO: 22)
T6 chain: KAFRDTFRLLL

[6] = target: T7, QKKRVSMILQS (SEQ ID NO: 59)
T7 chain: QKKRVSMILQS

[7] = target: T8, ATFKKTFKHLL (SEQ ID NO: 24)
T8 chain: ATFKKTFKHLL

[8] = target: T9, APKRGSILSKP (SEQ ID NO: 35)
T9 chain: APKRGSILSKP

[9] = target: T10, ALGKRTAKYRW (SEQ ID NO: 45)
T10 chain: ALGKRTAKYRW

[10] = target: T11, RGRSRSAPPNL (SEQ ID NO: 29)
T11 chain: RGRSRSAPPNL

[11] = target: T12, IYRASYYRKGG (SEQ ID NO: 27)
T12 chain: IYRASYYRKGG

[12] = target: T13, VVRTDSLKGRR (SEQ ID NO: 46)
T13 chain: VVRTDSLKGRR

[13] = target: T14, AFRRTSLAGGG (SEQ ID NO: 44)
T14 chain: AFRRTSLAGGG

[14] = target: T15, EEPVLTLVDEA (SEQ ID NO: 41)
T15 chain: EEPVLTLVDEA

[15] = target: T16, RLRRLTAREAA (SEQ ID NO: 56)
T16 chain: RLRRLTAREAA

[16] = target: T17, VAKRESRGLKS (SEQ ID NO: 21)
T17 chain: VAKRESRGLKS

[17] = target: T18, LMRRNSVTPLA (SEQ ID NO: 39)
T18 chain: LMRRNSVTPLA

[18] = target: T19, KRRQISIRGIV (SEQ ID NO: 47)
T19 chain: KRRQISIRGIV

[19] = target: T20, QKRPSQRSKYL (SEQ ID NO: 17)
T20 chain: QKRPSQRSKYL

[20] = target: T21, Peptide 1 (FARKGSLRQ), substrate, pseudo-substrate PKC alpha
T21 chain: FARKGSLRQ

[21] = target: T22, LSRTLSVAAKK (SEQ ID NO: 19)
T22 chain: LSRTLSVAAKK

[22] = target: T23, KFRTPSFLKKS (SEQ ID NO: 26)
T23 chain: KFRTPSFLKKS

[23] = target: T24, LRQLRSPRRTQ (SEQ ID NO: 51)
T24 chain: LRQLRSPRRTQ

[24] = target: T25, MYRRSYVFQT (SEQ ID NO: 30)
T25 chain: MYRRSYVFQT

[25] = target: T26, MRRSKSPADSA (SEQ ID NO: 37)
T26 chain: MRRSKSPADSA

[26] = target: T27, FARKGSLRQKN (SEQ ID NO: 6)
T27 chain: FARKGSLRQKN

[27] = target: T28, GTFRSSIRRLS (SEQ ID NO: 49)
T28 chain: GTFRSSIRRLS

[28] = target: T29, AKIQASFRGHM (SEQ ID NO: 20)
T29 chain: AKIQASFRGHM

[29] = target: T30, NKRRATLPHPG (SEQ ID NO: 53)
T30 chain: NKRRATLPHPG

[30] = target: T31, ITRKRSGEAAV (SEQ ID NO: 40)
T31 chain: ITRKRSGEAAV

[31] = target: T32, RGFLRSASLGR (SEQ ID NO: 32)
T32 chain: RGFLRSASLGR

[32] = target: T33, SQKRPSQRHGS (SEQ ID NO: 42)
T33 chain: SQKRPSQRHGS

… (SEQ ID NO: 16) = target: T34, … (SEQ ID NO: 16)
T34 chain: KKRFSFKKSFK

[33] = target: T35, GKRRPSRLVAL (SEQ ID NO: 58)
T35 chain: GKRRPSRLVAL

[34] = target: T36, Peptide 4 (RTPKLARQASIELPSM), substrate, lymphocyte-specific protein 1
T36 chain: RTPKLARQASIELPSM

[35] = target: T37, WPWQVSLRTRF (SEQ ID NO: 48)
T37 chain: WPWQVSLRTRF

[36] = target: T38, NSRRPSRATWL (SEQ ID NO: 55)
T38 chain: NSRRPSRATWL

[37] = target: T39, PKRPGSVHRTP (SEQ ID NO: 23)
T39 chain: PKRPGSVHRTP

[38] = target: T40, KTRKISQSAQT (SEQ ID NO: 52)
T40 chain: KTRKISQSAQT

[39] = target: T41, KIQASFRGHMA (SEQ ID NO: 18)
T41 chain: KIQASFRGHMA

[40] = target: T42, DIKRLTPRFTL (SEQ ID NO: 34)
T42 chain: DIKRLTPRFTL

[41] = target: T43, ETKKQSFKQTG (SEQ ID NO: 33)
T43 chain: ETKKQSFKQTG

[42] = target: T44, MYHNSSQKRH (SEQ ID NO: 36)
T44 chain: MYHNSSQKRH

[43] = target: T45, NKRRGSVPILR (SEQ ID NO: 57)
T45 chain: NKRRGSVPILR

[44] = target: T46, SPLRHSFQKQQ (SEQ ID NO: 25)
T46 chain: SPLRHSFQKQQ

[45] = target: T47, RVVGGSLRGAQ (SEQ ID NO: 50)
T47 chain: RVVGGSLRGAQ

[46] = target: T48, KTRRLSAFQQG (SEQ ID NO: 28)
T48 chain: KTRRLSAFQQG

B1: PKC-θ kinase domain (PKC-θ KD; amino acid residues 362 to 706), C-terminal hexa-histidine tag, expressed in E. coli (protein)
chain: MGPELNKERPSLQIKLKIEDFILHKMLGKGSFGKVFLAEFKKTNQFFAIKALKKDVVLMDDDVECTMVEKRVLSLAWEHPFLTHMFCTFQTKENLFFVMEYLNGGDLMYHIQSCHKFDLSRATFYAAEIILGLQFLHSKGIVYRDLKLDNILLDKDGHIKIADFGMCKENMLGDAKTNTFCGTPDYIAPEILLGQKYNHSVDWWSFGVLLYEMLIGQSPFHGQDEEELFHSIRMDNPFYPRWLEKEAKDLLVKLFVREPEKRLGVRGDIRQHPLFREINWEELERKEIDPPFRPKVKSPFDCSNFDKEFLNEKPRLSFADRALINSMDQNMFRNFSFMNPGMERLISHHHHHH
With B1 the “phosphorylation of the peptide spot (32P, peptide array)” value (from here on “phosphorylation of the peptide spot”) [1] was “shown to be substrates for PKC-θ”, the “phosphorylation of the peptide spot” value [2] was “shown to be substrates for PKC-θ” and the “phosphorylation of the peptide spot” value [3] was “shown to be substrates for PKC-θ”. For the same protein, the kcat [4] was 21 s⁻¹, the kcat/Km [4] was 51000 M⁻¹ s⁻¹ and the “phosphorylation of the peptide spot” value (… (SEQ ID NO: 54)) was “shown to be substrates for PKC-θ”. For the same protein, the “phosphorylation of the peptide spot” value [5] was “shown to be substrates for PKC-θ”, the “phosphorylation of the peptide spot” value [6] was “shown to be substrates for PKC-θ” and the “phosphorylation of the peptide spot” value [7] was “shown to be substrates for PKC-θ”. For the same protein, the “phosphorylation of the peptide spot” value [8] was “shown to be substrates for PKC-θ”, the “phosphorylation of the peptide spot” value [9] was “shown to be substrates for PKC-θ” and the “phosphorylation of the peptide spot” value [10] was “shown to be substrates for PKC-θ”. The “phosphorylation of the peptide spot” value [11] was “shown to be substrates for PKC-θ”, the “phosphorylation of the peptide spot” value [12] was “shown to be substrates for PKC-θ” and the “phosphorylation of the peptide spot” value [13] was “shown to be substrates for PKC-θ”. The “phosphorylation of the peptide spot” value [14] was “shown to be substrates for PKC-θ”, the “phosphorylation of the peptide spot” value [15] was “shown to be substrates for PKC-θ” and the “phosphorylation of the peptide spot” value [16] was “shown to be substrates for PKC-θ”. For the same protein, the “phosphorylation of the peptide spot” value [17] was “shown to be substrates for PKC-θ”, the “phosphorylation of the peptide spot” value [18] was “shown to be substrates for PKC-θ” and the “phosphorylation of the peptide spot” value [19] was “shown to be substrates for PKC-θ”. The “(kcat/Km)^η, slope of the solvent microviscosity effect, 250 mM NaCl” value [20] was “the slope had a (kcat/Km)^η value of 0.86 in 250 mM NaCl”, the kcat/Km [20] was 2.7e+06 M⁻¹ s⁻¹ and the “phosphorylation of the peptide spot” value [21] was “shown to be substrates for PKC-θ”. The “phosphorylation of the peptide spot” value [22] was “shown to be substrates for PKC-θ”, the “phosphorylation of the peptide spot” value [23] was “shown to be substrates for PKC-θ” and the “phosphorylation of the peptide spot” value [24] was “shown to be substrates for PKC-θ”. For the same protein, the “phosphorylation of the peptide spot” value [25] was “shown to be substrates for PKC-θ”, the “phosphorylation of the peptide spot” value [26] was “shown to be substrates for PKC-θ” and the “phosphorylation of the peptide spot” value [27] was “shown to be substrates for PKC-θ”. For the same protein, the “phosphorylation of the peptide spot” value [28] was “shown to be substrates for PKC-θ”, the “phosphorylation of the peptide spot” value [29] was “shown to be substrates for PKC-θ” and the “phosphorylation of the peptide spot” value [30] was “shown to be substrates for PKC-θ”. For the same protein, the “phosphorylation of the peptide spot” value [31] was “shown to be substrates for PKC-θ”, the “phosphorylation of the peptide spot” value [32] was “shown to be substrates for PKC-θ” and the “phosphorylation of the peptide spot” value (… (SEQ ID NO: 16)) was “shown to be substrates for PKC-θ”. The “phosphorylation of the peptide spot” value [33] was “shown to be substrates for PKC-θ”, the kcat [34] was 14 s⁻¹ and the kcat/Km [34] was 58000 M⁻¹ s⁻¹. The “phosphorylation of the peptide spot” value [35] was “shown to be substrates for PKC-θ”, the “phosphorylation of the peptide spot” value [36] was “shown to be substrates for PKC-θ” and the “phosphorylation of the peptide spot” value [37] was “shown to be substrates for PKC-θ”. For the same protein, the “phosphorylation of the peptide spot” value [38] was “shown to be substrates for PKC-θ”, the “phosphorylation of the peptide spot” value [39] was “shown to be substrates for PKC-θ” and the “phosphorylation of the peptide spot” value [40] was “shown to be substrates for PKC-θ”. For the same protein, the “phosphorylation of the peptide spot” value [41] was “shown to be substrates for PKC-θ”, the “phosphorylation of the peptide spot” value [42] was “shown to be substrates for PKC-θ” and the “phosphorylation of the peptide spot” value [43] was “shown to be substrates for PKC-θ”. For the same protein, the “phosphorylation of the peptide spot” value [44] was “shown to be substrates for PKC-θ”, the “phosphorylation of the peptide spot” value [45] was “shown to be substrates for PKC-θ” and the “phosphorylation of the peptide spot” value [46] was “shown to be substrates for PKC-θ”.
